The source of these data is PMC11298593, “ArcS from Thermococcus kodakarensis transfers L-lysine to preQ0 nucleoside derivatives as minimum substrate RNAs” (The Journal of Biological Chemistry, 2024).

Substrate in series [1]: NCCCC[C@H](N)C(=O)O
As to the kind of experiment: purified protein. The format is biochemical, Thermococcus kodakarensis. Conditions: 204 μM S. cerevisiae tRNA-Phe-preQ0 co-substrate, pH 7.6, 5 mM MgCl2, 50 mM KCl, 60 °C, labelled compound, unit μM from text b13 (table heading prints μmol).

Substrate in series [2]: N#Cc1cn([C@@H]2O[C@H](COP(=O)(O)O)[C@@H](O)[C@H]2O)c2nc(N)[nH]c(=O)c12
As to the kind of experiment: purified protein. The series is classed as biochemical, Thermococcus kodakarensis. Conditions: 200 μM lysine co-substrate, pH 7.6, 5 mM MgCl2, 50 mM KCl, no 2-mercaptoethanol, 60 °C, unit μM from text b23 (table heading prints μmol).

B1: ArcS and RaSEA complex (ArcS-RaSEA complex) (Thermococcus kodakarensis KOD1) (protein)
chain: MEVIKHEGPGRLGVVRLGDYSFRTPALVGIDFTLSPFNSFFHPKEPGEYDFNLAPSIPLGFYTPDEVIQKAIGRLWSVNYDGFNAFYLPALRRTEYLEEFFKIIDRHNFDAVYLGNSKILIKEYRYFVRILRELRERFPNVMIIADLEPFFYPLAVYLGIDAFDTRSLKLYDFEGKGFTQFSPFLWSNEPNSLDFAREVILLVRKALEEGKLRYLVENFFPTQYNAGILRIADLEHPDYLEKYTPIQKETVYFISDASIRRPEVKRWHERVLERFTPPKNVELLLLFPCSAKKPYSFSRSHTLYRRAVKEALGSGTSKVHELILTSPFGVVPREWEWLAKYDIVVTGHWSEEEIKPAAELLAKTLEKYPEDIPIVAHLDEAYVEIAKLASELSGREIIFTDVKNGTTSHESLRSLTETLREFQIEGTKEDRTYRYFENIRKVFDFYFGVGAGEAILPENGQVKGSKMLRIFVEGQQTGTFTDGVISVTPYGMQRIYDALKSYWVKIDFELRGDVFAVGVEEADPRIRPDDIVGIVRDEKVVGVGKAVLSGEEMVRAKKGVAVKVRKRV
notes: recombinant complex expressed in E. coli, purified aerobically (RaSEA apo, no Fe-S cluster); His x 6-ArcS given for the co-expression; with Archaeosine synthase subunit beta
In the case of B1, the Km in the series “purified protein [1]” turned out to be 40.9 ± 8.7 µM; in the series “purified protein [2]”, 433.4 ± 6.0 µM. The catalytic constant (kcat) in “purified protein [1]” amounted to 0.102 ± 0.0117 s⁻¹; in the series “purified protein [2]” it was 0.387 ± 0.0617 s⁻¹.
